Measured values from the supplement of paper PMC11502859.

Each substance was assayed on HEK293T (assay: median enrichment of reporter reads in eGFP-reduced (low/intermediate) vs eGFP-high sorted cells (eGFP-extension fusion abundance) (ratio); higher = stronger loss of eGFP-fusion protein abundance (more destabilising extension)).
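Note: lentiviral eGFP-IRES-mCherry reporter pool sorted by FACS 96 h post-transduction, gated on mCherry-high cells, Illumina read counts normalized per million, median across four biological replicates.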

Going from “SCSNGKMALFKPGPPIGQTQQQTRGQGSPVALSIEDRFLGSRRGWRKLKAGE [BTN3A2]” to “SCVGHPTRHPSSLRRPVGRQGSRGFALLLSSRVMTLLSISSHYSPCLALRAALLSSQAAPVPSPSTLEWSSSACFPSHRPATT [RAB15]”, the median enrichment rises from 5.24 to 5.5.

Going from SCVKSFSVFSTFIKTQDNSYWREILQM [ZNF708] to “SDARQFLDLGGLKRPPSCLLSFSVSSFLLVFFILFSFHQPSCILALQRDRDRSSAQGFSLPLFIMGGGYHPPSQSCEESGTSF [NOTCH3]”, the median enrichment falls from 11.8 to 5.68.

First: SDASTGPSLFCPQP [HSPB8]
Second: SDDILSPCVAFYLRFPRPAMFSSSPFSLYKNSFSRKTLISIVYMSLWLRH [ACTR3C]
The median enrichment of the first is lower: 0.471 for the first, 17.1 for the second.

First: SDEHG [TMEM242]
Second: SDFDHLNFL [IL1RL1]
The median enrichment of the first is higher: 1.05 for the first, 0.533 for the second.

First: SDFYLNRETYARTVWTNSRPRHGARRPAGLPPLDGRGKDGRELHCESAARAAGGWDWSSLYCR [DOT1L]
Second: SDGSAGTHCPPWLPLGGNPNRAPGGNPAPNPPQQGCTVSPLED [ATP13A1]
The median enrichment of the first is higher: 6.88 for the first, 0.555 for the second.

First: SDLVQHGNDSYRLIQQLTLRQVVLFQRPLFLPKPCYELNQMCQVFSGVLSNILFSCMGTSPLQMTMLMDLFIYLFKSLFS [IFNA8]
Second: SDNL [PDLIM2]
The median enrichment of the first is higher: 8.28 for the first, 0.365 for the second.

Going from SDP [CYGB] to SDPAGSINLDAWTL [MYL5], the median enrichment falls from 0.606 to 0.467.

Compared with “SDPTSPSAFHWLCHGLYKQIIFPLFKIKSPNENLGM [PRSS37]”, “SDQAVLEDRQIYTPHTHTTYTTHTRSHPLTHTLHRLLPYSWTFI [BMP4]” is higher in median enrichment: 5.12 for the first, 9.46 for the second.

First: SDQGLGLRVGGLVEHCNPLNK [LRG1]
Second: SDQLVCL [PPP1R15A]
The median enrichment of the first is higher: 1.34 for the first, 0.401 for the second.

First: SDRTCLRGRRTLAWAQESEAAFLLRGPSGESGPRYHARTLRGPVSCRRVSTFPPNPGLTALRSARRARAETRVGCGELKEPIK [UQCC3]
Second: SDS [POLE2]
The median enrichment of the first is higher: 3.65 for the first, 0.445 for the second.

First: SDSESN [MCM6]
Second: SDTLLWSETEDVG [PEX7]
The median enrichment of the first is lower: 0.12 for the first, 2.59 for the second.

First: SDVQDL [ZMPSTE24]
Second: SDYCKPLPLLPCLCLFSPLTYSISQPPPTCLCDLRTVPSRHWDKGRISCSPPESAWCCPLFPLCAYD [PRPF3]
The median enrichment of the first is lower: 0.181 for the first, 2.87 for the second.

Compared with SEAPAANTMQARCVSELF [METTL2B], SECTLQSWWFLRVGLDRVAAC [BPHL] is higher in median enrichment: 0.81 for the first, 7.67 for the second.

Going from SEELPGRTQDAEPRSLPG [ACAN] to “SEEPQDHTHSPYPPQDYRTFWHTLYRVLGFTPQNDPTMSTHHQNPANGPPLPPSPDAEMVMGSWRVGSEMKGTPQWAAGPIFP [SLC13A5]”, the median enrichment rises from 0.794 to 3.6.

Compared with SEEQPSFVPVVFIKYPLHP [WDR54], “SEERMYVCFTHRHQESSPMRFFFGGGRVYTAREQKYCVS [B4GALT5]” is higher in median enrichment: 6.65 for the first, 9.99 for the second.

Going from SEITDTFFGIHILGLGGVAHACNPSPLGG [CTSL] to “SEMMSCPGPMATRTLQATLLCDQARIPGAGLRGLNGPSGTQVGLSTLSPTTQPTALK [TMEM54]”, the median enrichment falls from 13.3 to 0.763.

First: SEMPAALPCQR [CUEDC1]
Second: SEPQLTKSACPRTAPALELGARAAELVFGPQRRIQNQKLKSDVRWAPAPSAESRQGEAGWSQAPSHAAPKSWTHLWGAPHLHL [MYO9B]
The median enrichment of the first is lower: 1.21 for the first, 7.17 for the second.

Going from SEPSHSLSPLPCLPHLPPTTRA [RAB3A] to SERQEVEWRR [STAMBPL1], the median enrichment rises from 0.136 to 0.37.

Going from SESTGSSQTYRCPAR [FAM221B] to “SETAGFLLLFFLVVQLSPPPLLSCLLIWSFSLFSACHVFSGTYLHPPQHQFP [CNTNAP5]”, the median enrichment rises from 0.476 to 11.4.

First: SETEASLFHSPS [EPB41L4B]
Second: SEVIFL [CES5A]
The median enrichment of the first is lower: 0.374 for the first, 1.39 for the second.

Going from SEVLLETKSPSPIAEGGGDPLL [ARID3C] to “SEVPDMGPICSSSQLLSLTSHHGGSSHLLWICSL [CIAPIN1]”, the median enrichment rises from 0.257 to 4.18.

First: SEVRACAMCETGKLGAQFEFFLFFFFLSTKNTLMVNTGQNQERMCSFQGLGQNL [GAB3]
Second: SEVRPGPGQGLGPAPCPICSGPQAPPFEEVG [GUCY2D]
The median enrichment of the first is higher: 7.14 for the first, 1.47 for the second.

Going from SFAFIF [CHST9] to SFFFPSAS [KAT2B], the median enrichment falls from 8.28 to 2.2.

Compared with SFFSLSRFLAALVLL [LONRF2], SFHLLKPAYFRTLRLTVFSLLMMSSC [PIK3AP1] is higher in median enrichment: 8.16 for the first, 11.1 for the second.

Going from SFLFYSH [DNAJB9] to SFQNWMDFYFFQ [CCDC169], the median enrichment rises from 9.2 to 19.6.

Compared with SFTHHMDSIYKSQ [EDNRB], “SGAENGSCRKIRLRRLPAFCHPSHSQTPDHLKLLTLWFQIFFNLLLLLSLSNLGTFKNREMSECG [STAT3]” is higher in median enrichment: 1.08 for the first, 6.44 for the second.

Going from SGAGPGPRGGTSINSVAKLE [MYL7] to SGAKQRHQLLHQKS [SGMS2], the median enrichment falls from 0.743 to 0.386.

Compared with “SGARLWDRPGPASGGDPGSGLGSPDLEACPSRASQD [CEBPA]”, SGASQRSAHADNKVALSLE [FIBP] is lower in median enrichment: 0.648 for the first, 0.209 for the second.

With SGCHGRLSPSIL [KRTAP6-1] the median enrichment was 0.506.
